Reference: paper PMC11417369, “DNA sequence and chromatin differentiate sequence-specific transcription factor binding in the human malaria parasite Plasmodium falciparum”

B1: CACACA_negctrl_site1298 (dsDNA)
DNA 1: ATATTATCATTTTTTTTAATGGAAAAAAAAAAAAAA
DNA 2: TTTTTTTTTTTTTTCCATTAAAAAAAATGATAATAT
B2: CACACA_negctrl_site1293 (dsDNA)
DNA 1: TCATATTCCAAAAAAAAAAAAAAAAAAAAAAAAATA
DNA 2: TATTTTTTTTTTTTTTTTTTTTTTTTTGGAATATGA
B3: CACACA_negctrl_site1718 (dsDNA)
DNA 1: TTTTTGCAAAAAGAAATAATTTTATTTTAGTTCGGA
DNA 2: TCCGAACTAAAATAAAATTATTTCTTTTTGCAAAAA
B4: CACACA_negctrl_site1113 (dsDNA)
DNA 1: TTTTTTTTTAAAGAAAATAAAAATATGTACTTGACA
DNA 2: TGTCAAGTACATATTTTTATTTTCTTTAAAAAAAAA
B5: CACACA_negctrl_site383 (dsDNA)
DNA 1: GGAACCATCCAAAAAAAAAAAAAAAATAATAATAAT
DNA 2: ATTATTATTATTTTTTTTTTTTTTTTGGATGGTTCC
B6: CACACA_negctrl_site191 (dsDNA)
DNA 1: TTGTTCATCTTTTTTTTTTTTTTTTTTTTTTAAATC
DNA 2: GATTTAAAAAAAAAAAAAAAAAAAAAAGATGAACAA
B7: CACACA_negctrl_site1354 (dsDNA)
DNA 1: TCTTTTTTTTCTTTTTTTTTATTTAAATATCAAGTA
DNA 2: TACTTGATATTTAAATAAAAAAAAAGAAAAAAAAGA
B8: CACACA_negctrl_site59 (dsDNA)
DNA 1: AAAAAAAAAAAAAAAAAAAAAAAAAAAAATAAAAAA
DNA 2: TTTTTTATTTTTTTTTTTTTTTTTTTTTTTTTTTTT
B9: CACACA_negctrl_site1253 (dsDNA)
DNA 1: TAATATTTCGTTAAGTTTTAAAGAAAAAAAAAAAAA
DNA 2: TTTTTTTTTTTTTCTTTAAAACTTAACGAAATATTA
B10: CACACA_negctrl_site1226 (dsDNA)
DNA 1: TGTTATTTAAATAATTCTTTTTAAAAGATGAATTAT
DNA 2: ATAATTCATCTTTTAAAAAGAATTATTTAAATAACA
B11: CACACA_negctrl_site488 (dsDNA)
DNA 1: TTTTTAATAAAATGATTGATAATTATTAAATTAAAA
DNA 2: TTTTAATTTAATAATTATCAATCATTTTATTAAAAA
B12: CACACA_negctrl_site822 (dsDNA)
DNA 1: TTTTTTCAATAAATAATCGTATATTGAATAATAATA
DNA 2: TATTATTATTCAATATACGATTATTTATTGAAAAAA
B13: CACACA_negctrl_site1196 (dsDNA)
DNA 1: AAAAATTGAATTTTTTTTTTTTTTTTGAGAAGGAAA
DNA 2: TTTCCTTCTCAAAAAAAAAAAAAAAATTCAATTTTT
B14: CACACA_negctrl_site452 (dsDNA)
DNA 1: AATATATGATAATTTTTTTTTTTTTTTTTTAAATAT
DNA 2: ATATTTAAAAAAAAAAAAAAAAAATTATCATATATT
B15: CACACA_negctrl_site1657 (dsDNA)
DNA 1: TATTACATTATTCAAAAAAATTTATATGGTTATAGG
DNA 2: CCTATAACCATATAAATTTTTTTGAATAATGTAATA
B16: CACACA_negctrl_site1057 (dsDNA)
DNA 1: TGATTTTTTTTTTTTTTTTTTTTTTTTTTAGTTTGC
DNA 2: GCAAACTAAAAAAAAAAAAAAAAAAAAAAAAAATCA
B17: CACACA_negctrl_site1514 (dsDNA)
DNA 1: GAATAAAAAAAAAAAAAAATTTATTTTATAATAAAA
DNA 2: TTTTATTATAAAATAAATTTTTTTTTTTTTTTATTC
B18: CACACA_negctrl_site959 (dsDNA)
DNA 1: ATTTTTTTTTAATGCAAAAGGTGATGATCGGTCATA
DNA 2: TATGACCGATCATCACCTTTTGCATTAAAAAAAAAT
B19: CACACA_negctrl_site34 (dsDNA)
DNA 1: TTATGTATATTATAAATTAATACATTTAAATTAATA
DNA 2: TATTAATTTAAATGTATTAATTTATAATATACATAA
B20: CACACA_negctrl_site18 (dsDNA)
DNA 1: TTTTTTTTTCTTCTTTTCAAATTTAAGAAATTATAA
DNA 2: TTATAATTTCTTAAATTTGAAAAGAAGAAAAAAAAA
B21: CACACA_negctrl_site792 (dsDNA)
DNA 1: AAAGAAAAAGAAAAAGAAAAATTAGAATATAAAATA
DNA 2: TATTTTATATTCTAATTTTTCTTTTTCTTTTTCTTT
B22: CACACA_negctrl_site1410 (dsDNA)
DNA 1: TAAAGTACAGGAGTAAATTGAAAAAAAAAAAAAAAA
DNA 2: TTTTTTTTTTTTTTTTCAATTTACTCCTGTACTTTA
B23: CACACA_negctrl_site388 (dsDNA)
DNA 1: TTATTTAAAATTTTTATGCGTATATATATAGGAACA
DNA 2: TGTTCCTATATATATACGCATAAAAATTTTAAATAA
B24: CACACA_negctrl_site718 (dsDNA)
DNA 1: TATAACATTTTTTTCAAAATAGCTTTAGAAATAAAG
DNA 2: CTTTATTTCTAAAGCTATTTTGAAAAAAATGTTATA
B25: CACACA_negctrl_site662 (dsDNA)
DNA 1: TTGTATTATATTGTATTATGTTTAAATGAAAAAAAA
DNA 2: TTTTTTTTCATTTAAACATAATACAATATAATACAA
B26: CACACA_negctrl_site1530 (dsDNA)
DNA 1: TATTTTGAAATGGAAAGGATATAGAACTTAAACAAA
DNA 2: TTTGTTTAAGTTCTATATCCTTTCCATTTCAAAATA
B27: CACACA_negctrl_site1097 (dsDNA)
DNA 1: ATATTTTTAGGTGATTATTATTCGGAGAAGCGAATT
DNA 2: AATTCGCTTCTCCGAATAATAATCACCTAAAAATAT
B28: CACACA_negctrl_site1721 (dsDNA)
DNA 1: TTATATTTATATGTAATACAAAATAACAAAAAATTT
DNA 2: AAATTTTTTGTTATTTTGTATTACATATAAATATAA
B29: CACACA_negctrl_site1520 (dsDNA)
DNA 1: TCTTAAATTATGATAAAATATAATAAATAAATAAAT
DNA 2: ATTTATTTATTTATTATATTTTATCATAATTTAAGA
B30: CACACA_negctrl_site19 (dsDNA)
DNA 1: TTAAATTCGTCATTTTAAAATAATACAAAAGTTCAA
DNA 2: TTGAACTTTTGTATTATTTTAAAATGACGAATTTAA
B31: CACACA_negctrl_site1042 (dsDNA)
DNA 1: ATCAAAAAAAAAAAATTTTTTTTTTTGTTTGTTTCC
DNA 2: GGAAACAAACAAAAAAAAAAATTTTTTTTTTTTGAT
B32: CACACA_negctrl_site1716 (dsDNA)
DNA 1: TTTATAGTTTTAAACAAAGTAATACAAATGTATATA
DNA 2: TATATACATTTGTATTACTTTGTTTAAAACTATAAA
B33: CACACA_negctrl_site1319 (dsDNA)
DNA 1: ATTTTTTTTTTTTTTTTTTTTTTTTATGAATGTTAT
DNA 2: ATAACATTCATAAAAAAAAAAAAAAAAAAAAAAAAT
B34: CACACA_negctrl_site1364 (dsDNA)
DNA 1: ATTTTTTTTTTTTTTTTTTTTTTTTTTTTTTTTTTT
DNA 2: AAAAAAAAAAAAAAAAAAAAAAAAAAAAAAAAAAAT
B35: CACACA_negctrl_site643 (dsDNA)
DNA 1: TTTTAAAAAATATAATAATATAAATATGTTTTATAC
DNA 2: GTATAAAACATATTTATATTATTATATTTTTTAAAA
B36: CACACA_negctrl_site980 (dsDNA)
DNA 1: ATTTTTAAGCATATCAAAAAAAAAAAAAAAATTAAT
DNA 2: ATTAATTTTTTTTTTTTTTTTGATATGCTTAAAAAT
B37: CACACA_negctrl_site856 (dsDNA)
DNA 1: TTTCCTGGTCAAGGGGTTACGGTTACGTCCTCTTGC
DNA 2: GCAAGAGGACGTAACCGTAACCCCTTGACCAGGAAA
B38: CACACA_negctrl_site1570 (dsDNA)
DNA 1: TTTTTTTTTTTTTTTTTTTTTTTTTTTTTTTGGGGG
DNA 2: CCCCCAAAAAAAAAAAAAAAAAAAAAAAAAAAAAAA
B39: CACACA_negctrl_site1361 (dsDNA)
DNA 1: TTAAAATTCAAAAAAAAAAATCAGAATATCAGAAAA
DNA 2: TTTTCTGATATTCTGATTTTTTTTTTTGAATTTTAA
B40: CACACA_negctrl_site758 (dsDNA)
DNA 1: TTTTAAAAAATAAAATATTATTGAAGTAAAATATGA
DNA 2: TCATATTTTACTTCAATAATATTTTATTTTTTAAAA
B41: CACACA_negctrl_site1800 (dsDNA)
DNA 1: TTTTAACGTAATTCAAATGAGCAGAATTTTTTAAAA
DNA 2: TTTTAAAAAATTCTGCTCATTTGAATTACGTTAAAA
B42: CACACA_negctrl_site869 (dsDNA)
DNA 1: TTCTTACACAAAAAAATGAAATCAATCAAAAAAAAA
DNA 2: TTTTTTTTTGATTGATTTCATTTTTTTGTGTAAGAA
B43: CACACA_negctrl_site147 (dsDNA)
DNA 1: GATTACCTTTTTTTTTTTTTTTTTTTTTTTTTTTTC
DNA 2: GAAAAAAAAAAAAAAAAAAAAAAAAAAAAGGTAATC
B44: CACACA_negctrl_site279 (dsDNA)
DNA 1: TGTTTTTGTGATCATATGAAAAAATTACCTACAAGG
DNA 2: CCTTGTAGGTAATTTTTTCATATGATCACAAAAACA

Target: T1, AP2-HC D1 (Plasmodium falciparum, UniProt Q8IKR9 1316-1374)
T1 sequence: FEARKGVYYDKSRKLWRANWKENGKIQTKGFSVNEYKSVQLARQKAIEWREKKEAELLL
Experiment: gcPBM; about 25 ug protein; PBS, 1% milk, 0.2 mg/ml BSA, salmon testes DNA, 0.03% Triton X-100
Conditions: tags: N-terminal GST (pGEX-4T-1), kept; label: surface-attached array probe

Row | Binder | binding signal
1 | B1 | 9.12 ln median PBM intensity, better of two orientations
2 | B2 | 9.15 ln median PBM intensity, better of two orientations
3 | B3 | 9.16 ln median PBM intensity, better of two orientations
4 | B4 | 9.17 ln median PBM intensity, better of two orientations
5 | B5 | 9.18 ln median PBM intensity, better of two orientations
6 | B6 | 9.2 ln median PBM intensity, better of two orientations
7 | B7 | 9.2 ln median PBM intensity, better of two orientations
8 | B8 | 9.2 ln median PBM intensity, better of two orientations
9 | B9 | 9.21 ln median PBM intensity, better of two orientations
10 | B10 | 9.21 ln median PBM intensity, better of two orientations
11 | B11 | 9.22 ln median PBM intensity, better of two orientations
12 | B12 | 9.23 ln median PBM intensity, better of two orientations
13 | B13 | 9.23 ln median PBM intensity, better of two orientations
14 | B14 | 9.23 ln median PBM intensity, better of two orientations
15 | B15 | 9.24 ln median PBM intensity, better of two orientations
16 | B16 | 9.25 ln median PBM intensity, better of two orientations
17 | B17 | 9.25 ln median PBM intensity, better of two orientations
18 | B18 | 9.27 ln median PBM intensity, better of two orientations
19 | B19 | 9.28 ln median PBM intensity, better of two orientations
20 | B20 | 9.28 ln median PBM intensity, better of two orientations
21 | B21 | 9.29 ln median PBM intensity, better of two orientations
22 | B22 | 9.3 ln median PBM intensity, better of two orientations

Row | Binder | binding signal
23 | B23 | 9.3 ln median PBM intensity, better of two orientations
24 | B24 | 9.31 ln median PBM intensity, better of two orientations
25 | B25 | 9.32 ln median PBM intensity, better of two orientations
26 | B26 | 9.32 ln median PBM intensity, better of two orientations
27 | B27 | 9.32 ln median PBM intensity, better of two orientations
28 | B28 | 9.33 ln median PBM intensity, better of two orientations
29 | B29 | 9.33 ln median PBM intensity, better of two orientations
30 | B30 | 9.33 ln median PBM intensity, better of two orientations
31 | B31 | 9.33 ln median PBM intensity, better of two orientations
32 | B32 | 9.34 ln median PBM intensity, better of two orientations
33 | B33 | 9.34 ln median PBM intensity, better of two orientations
34 | B34 | 9.34 ln median PBM intensity, better of two orientations
35 | B35 | 9.34 ln median PBM intensity, better of two orientations
36 | B36 | 9.35 ln median PBM intensity, better of two orientations
37 | B37 | 9.35 ln median PBM intensity, better of two orientations
38 | B38 | 9.36 ln median PBM intensity, better of two orientations
39 | B39 | 9.36 ln median PBM intensity, better of two orientations
40 | B40 | 9.36 ln median PBM intensity, better of two orientations
41 | B41 | 9.36 ln median PBM intensity, better of two orientations
42 | B42 | 9.37 ln median PBM intensity, better of two orientations
43 | B43 | 9.37 ln median PBM intensity, better of two orientations
44 | B44 | 9.38 ln median PBM intensity, better of two orientations
